B1: H1H21234N-N297Q (antibody, V domains shown)
VH: QVQLQESGPGLVKPSETLSLTCTVTGGSISRNYWSWIRQPPGKGLEWIGYIYYSGSIDYNPSLKSRVTISVDTSKNQFSLKLSSMTAADTAVYYCARDRWNWKYGMDVWGQGTTVIVSS
VL: EIVLTQSPGTLSLSPGERATLSCRASQTVRNNYLAWYHQKPGQAPRLLIYGASSRATGIPDRFSGSGSGTDFTLTISRLEPEDFTVYYCHQYGNSPWTFGQGTKMEIKR
notes: Human IgG1 Fc with N297Q (EU numbering)
B2: H1H21234N (antibody, V domains shown)
VH: B1 VH
VL: B1 VL
notes: Original human IgG1 Fc
B3: H2aM25695N (antibody, mouse IgG2a, V domains shown)
VH: B1 VH with D58N, T73M, S83N, M85V
VL: B1 VL with N32S, T85A, H90Q, N94S, P96Y
notes: Human variable domains with mouse IgG2a Fc
B4: H2aM21229N (antibody, mouse IgG2a, V domains shown)
VH: EVQLVESGGGLVKPGGSLRLSCAASGFTFSRYSMNWVRQAPGKGLEWVSSISSSSSYIYYGDTVKGRFTISRDNAKKSLYLQMNSLRAEDTAVYYCVRDRGQLVLYFDYWGQGTLVTVSS
VL: DIQMTQSPASLSTSIRDRVTITCRASLSISSFLNWFQQRPGKAPKLLIYVASNLQSGVPSRFSDSGSGTDFTLTISSLQPEDFATYYCQQNYSTPPITFGQGTRLEIK
notes: as for B3
B5: H2aM21235N (antibody, mouse IgG2a, V domains shown)
VH: EVQLVESGGGLVQPGGSLRLSCAASGFTFSDHYMDWVRQAPGKGLEWVGRTRNKANSYTTEYAASVSGRFTISRDDSKNSLYLQMNSLKTEDTAVYYCTRAGIIGTLFDYWGQGTLVTVSS
VL: DIQMTQSPSSLSASVGDRVTITCRASQIIGRYLNWFQQKPGKVPKLLIYAASSLQRGVPSRFSGSGSGTDFTLTISSLQPEDFATYYCQQSYNTPPITFGQGTRLEIKR
notes: as for B3
B6: H2aM21228N (antibody, mouse IgG2a, V domains shown)
VH: VQLVESGGGLVQPGGSLRLSCAASGFTFSDHYMDWVRQAPGKGLEWVGRTRNKANSHTTEYAASVSGRFTISRDDSKNSLYLQMNSLKTEDTAVYYCTRAGIIGTLFDYWGQGTLVTVSS
VL: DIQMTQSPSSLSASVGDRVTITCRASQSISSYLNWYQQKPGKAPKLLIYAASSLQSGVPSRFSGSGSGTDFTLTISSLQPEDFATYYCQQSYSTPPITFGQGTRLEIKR
notes: as for B3
B7: H1H21234N-N297Q-LP13 (antibody, human IgG1, V domains shown)
VH: B1 VH
VL: B1 VL
modifications: steroid linker-payload LP13 clicked to azido-PEG3-amine on Q295 and Q297 (EU) of the heavy chain constant region
notes: antibody-drug conjugate; human IgG1 Fc with N297Q (EU); also called H1H21234N-LP13
B8: H1H21234N-N297Q-LP3 (antibody, human IgG1, V domains shown)
VH: B1 VH
VL: B1 VL
modifications: steroid linker-payload LP3 clicked to azido-PEG3-amine on Q295 and Q297 (EU) of the heavy chain constant region
notes: antibody-drug conjugate; human IgG1 Fc with N297Q (EU); also called H1H21234N-LP3

Consider eight molecules from patent publication US20190367631A1 (Regeneron, published 2019).

Where a chain is given by its changes, count along the chain named. Names and notes keep the numbering of the source.

For one experiment, the target named is T1, human MSR1 extracellular domain expressed with a N-terminal nonahistidine tag (human, UniProt P21757 77-451).
T1 construct: extracellular domain; also called His9-hMSR1; His-hMSR1
T1 sequence: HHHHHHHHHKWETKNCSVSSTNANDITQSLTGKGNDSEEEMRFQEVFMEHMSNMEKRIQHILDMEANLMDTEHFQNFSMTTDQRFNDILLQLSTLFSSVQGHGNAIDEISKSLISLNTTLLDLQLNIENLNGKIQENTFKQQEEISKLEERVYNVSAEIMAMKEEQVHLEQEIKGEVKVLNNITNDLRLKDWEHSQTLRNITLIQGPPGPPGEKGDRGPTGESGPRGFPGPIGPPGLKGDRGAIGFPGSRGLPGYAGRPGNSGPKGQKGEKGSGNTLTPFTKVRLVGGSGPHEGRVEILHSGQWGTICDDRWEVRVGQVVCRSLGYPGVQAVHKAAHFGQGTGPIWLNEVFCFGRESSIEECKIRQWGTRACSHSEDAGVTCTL
The experiment is described as follows: competition ELISA, plate-coated His9-hMSR1; 500 nM antibody, competitor ligand 10 nM Ox-LDL.
Procedure: (§1) Buffer alone was also added to wells on each coat. […] This assay was conducted in four different assay runs.
(§2) Data analysis was performed using a sigmoidal dose-response model within Prism™ software (GraphPad).
On to B1, for which the “% Blocking” value came to 49%.
Consider B2, for which the “% Blocking” value is 98%.
For B3, the “% Blocking” value came to 96%.

Another experiment has as its target T1, human MSR1 extracellular domain …. Briefly: competition ELISA, plate-coated His9-hMSR1; 100 nM antibody, competitor ligand Ac-LDL. On the technique in general: An ELISA detects its analyte on a solid surface through an enzyme-linked reagent.
Procedure: as §1, §2
On to B1, for which the “% Blocking” value was 75%.
On the same count and under the same terms, the figure for B2 is 70%; for B3 it is 65%; for B4 it is -11%.
In the case of B5, the “% Blocking” value was found to be 24%.
On the same count and under the same terms, as for B6, the figure is -32%.

For another experiment the target is unchanged. Briefly: competition ELISA, plate-coated His9-hMSR1; 300 nM antibody, competitor ligand biot-AGE-BSA.
Procedure: as §1, §2
For B1, the “% Blocking” value was -27%.
The same measure, in the same setting: as for B2, the figure is 21%.
On to B3, for which the “% Blocking” value came out at 16%.
Same read-out and setting: the figure for B4 is 3%; for B5 it is -24%; for B6 it is -1%.

For another experiment, the target named is T2, human MSR1 extracellular domain expressed with a N-terminal nonahistidine tag (His9-hMSR1); R&D Systems, Cat … (human, UniProt P21757 77-451).
T2 construct: extracellular domain; Bought reagent; also called His-hMSR1; 9xHis-hMSR1
T2 sequence: T1 sequence
Briefly: SPR Biacore T200, 25 C, antibody captured by anti-human Fc, His9-hMSR1 injected; no dissociation seen, kd fixed at 1.00E-05.
Procedure: (§3) All binding studies were performed in 10 mM HEPES, 300 mM NaCl, 3 mM EDTA, and 0.05% v/v Surfactant Tween-20, pH 7.4 (HBS-ET) running buffer at 25° C.
(§4) The association rate (kₐ) and dissociation rate (kd) were determined by fitting the real-time binding sensorgrams to a 1:1 binding model with mass transport limitation using Scrubber 2.0c curve-fitting software. Binding dissociation equilibrium constant (KD) and dissociative half-life (t½) were calculated from the kinetic rates as:
Molecule B7 gave a Kd not above 0.025 nM, a koff not above 1e-05 s⁻¹ and a t½ not below 19.3 h.
Molecule B8 displayed a Kd not above 0.024 nM, a koff not above 1e-05 s⁻¹ and a t½ not below 19.3 h.

In a further experiment the target is T1, human MSR1 extracellular domain …. The experiment is described as follows: competition ELISA, plate-coated His9-hMSR1; 500 nM antibody, competitor ligand 5 nM Ox-LDL.
Procedure: as §1, §2
In the case of B4, the “% Blocking” value worked out at 38%.
Still for that read-out and setting: the figure for B5 is -4%.
On to B6, for which the “% Blocking” value worked out at 41%.

Another experiment has as its target T2, human MSR1 extracellular domain …. The experiment is described as follows: SPR Biacore T200, 25 C, antibody captured by anti-human Fc, His9-hMSR1 injected. For orientation: Surface plasmon resonance follows binding to a sensor surface in real time, without labels.
Procedure: as §3, §4
In turn, B7 displayed an on-rate constant (kon) of 400000 M⁻¹ s⁻¹.
B8 displayed an association rate constant (kon) of 417000 M⁻¹ s⁻¹.

By Kd is commonly meant the equilibrium constant for the complex coming apart. A higher Kd goes with lower affinity. The koff is the first-order rate constant of dissociation. A higher koff goes with fast dissociation. Broadly, the t½ is the time in which the quantity being followed falls by half. Low values mean rapid decline, high ones slow decline. A word on the kon: it is a measure of how fast the partners come together.
